Where no end group is shown, it is not given here.
Experiments:
MAGE-A1 = target: T1, MAGE-A1 (human, UniProt P43355 1-309); experiment: Western blot, lysates of transiently transfected HEK 293 cells
T1 construct: In lysates of transiently transfected HEK 293 cells; construct not described
T1 sequence: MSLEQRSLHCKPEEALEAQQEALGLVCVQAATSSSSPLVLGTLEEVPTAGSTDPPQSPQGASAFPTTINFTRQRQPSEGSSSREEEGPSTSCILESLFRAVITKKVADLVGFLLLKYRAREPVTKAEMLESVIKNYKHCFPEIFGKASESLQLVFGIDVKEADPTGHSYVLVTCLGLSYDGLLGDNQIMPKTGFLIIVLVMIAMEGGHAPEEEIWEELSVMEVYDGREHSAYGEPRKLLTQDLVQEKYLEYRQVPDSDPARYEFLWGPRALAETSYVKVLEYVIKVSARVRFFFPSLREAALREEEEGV
Protocol: (§1) The specificity of mAbs 1B1, 16G7 and 23D2 were tested in Western blot analyses on HEK 293 cells transiently transfected with plasmids encoding MAGE-A1, A2, A3, A4, A6, A8, A9, A10, All and A12. Non-transfected cells were used as a control. Between 25 and 85 μg of lysates of transfected or non-transfected cells were electrophoresed on SDS-PAGE and transferred onto nitrocellulose. Immunodetection was performed by incubation of the blots with each of mAbs 1B1, 16G7 and 23D2. Immunodetection was additionally performed using a mixture of mAbs that together recognized all of the MAGE-A antigens expressed by the transfectants (see Table 6 for mAbs in this mixture).
(§2) Method: mini-gels were prepared with 10% acrylamide in the running gel and 4.5% acrylamide in the stacking gel. Samples were prepared in 40 μl of loading buffer (reducing conditions), the gel was loaded and migrated at 100V in the stacking gel and 200 V in the running gel. Proteins were transferred onto nitrocellulose at 100 mA during one hour at 4° C., and the membrane incubated in TBS-5% skimmed milk, and incubated with antibody diluted in TBS-1% skim milk for one hour at room temperature.

MAGE-A9 = target: T2, MAGE-A9 (human, UniProt P43362 1-315); experiment: as above
T2 construct: constructs not described
T2 sequence: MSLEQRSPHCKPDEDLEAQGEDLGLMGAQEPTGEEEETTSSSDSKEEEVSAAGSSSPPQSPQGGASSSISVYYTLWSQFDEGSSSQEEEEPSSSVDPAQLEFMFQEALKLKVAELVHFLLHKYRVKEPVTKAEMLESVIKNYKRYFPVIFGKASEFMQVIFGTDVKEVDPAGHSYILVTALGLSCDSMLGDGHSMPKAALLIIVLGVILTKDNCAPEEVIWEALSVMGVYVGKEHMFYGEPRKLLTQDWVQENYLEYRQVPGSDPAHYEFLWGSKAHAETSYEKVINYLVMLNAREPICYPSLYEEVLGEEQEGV
Protocol: as §1, §2

MAGE-A8 = target: T3, MAGE-A8 (human, UniProt P43361 1-318); experiment: as above
T3 construct: In lysates of transiently transfected HEK 293 cells; construct not described
T3 sequence: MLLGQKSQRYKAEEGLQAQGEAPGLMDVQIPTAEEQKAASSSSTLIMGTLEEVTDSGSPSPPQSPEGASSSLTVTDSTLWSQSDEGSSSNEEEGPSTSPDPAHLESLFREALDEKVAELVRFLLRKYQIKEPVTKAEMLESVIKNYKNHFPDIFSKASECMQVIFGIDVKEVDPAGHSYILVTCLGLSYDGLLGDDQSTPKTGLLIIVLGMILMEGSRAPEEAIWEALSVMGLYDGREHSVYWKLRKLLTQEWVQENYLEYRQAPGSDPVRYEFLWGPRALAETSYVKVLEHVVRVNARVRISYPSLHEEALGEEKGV
Protocol: as §1, §2

MAGE-A6 = target: T4, MAGE-A6 (human, UniProt P43360 1-314); experiment: as above
T4 construct: In lysates of transiently transfected HEK 293 cells (Western blot); also endogenous MAGE-A6 in K562 lysate; Construct not described
T4 sequence (P43360 whole entry Y283N): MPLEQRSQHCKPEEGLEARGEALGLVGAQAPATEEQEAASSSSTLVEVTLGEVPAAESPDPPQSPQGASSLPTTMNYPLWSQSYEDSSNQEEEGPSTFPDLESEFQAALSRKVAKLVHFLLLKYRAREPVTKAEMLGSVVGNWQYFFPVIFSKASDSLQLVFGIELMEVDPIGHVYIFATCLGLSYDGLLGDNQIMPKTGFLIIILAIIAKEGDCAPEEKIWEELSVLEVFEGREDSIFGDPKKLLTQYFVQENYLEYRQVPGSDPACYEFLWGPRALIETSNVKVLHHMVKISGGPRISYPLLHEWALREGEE
Protocol: as §1, §2

MAGE-A10 = target: T5, MAGE-A10 (human, UniProt P43363 1-369); experiment: as above
T5 construct: In lysates of transiently transfected HEK 293 cells; construct not described
T5 sequence (P43363 whole entry R166K/V234I): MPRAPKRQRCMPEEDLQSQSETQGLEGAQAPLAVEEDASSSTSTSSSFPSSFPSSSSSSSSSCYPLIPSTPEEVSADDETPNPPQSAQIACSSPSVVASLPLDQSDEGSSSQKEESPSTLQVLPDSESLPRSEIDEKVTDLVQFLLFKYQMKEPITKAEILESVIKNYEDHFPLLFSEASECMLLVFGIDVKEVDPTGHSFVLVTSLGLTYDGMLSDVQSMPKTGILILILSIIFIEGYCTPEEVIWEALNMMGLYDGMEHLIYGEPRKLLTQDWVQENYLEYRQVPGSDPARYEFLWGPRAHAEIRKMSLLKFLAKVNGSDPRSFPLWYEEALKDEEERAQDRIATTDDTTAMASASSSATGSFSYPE
Protocol: as §1, §2

MAGE-A4 = target: T6, MAGE-A4 (human, UniProt P43358 1-317); experiment: as above
T6 construct: In lysates of transiently transfected HEK 293 cells; construct not described
T6 sequence: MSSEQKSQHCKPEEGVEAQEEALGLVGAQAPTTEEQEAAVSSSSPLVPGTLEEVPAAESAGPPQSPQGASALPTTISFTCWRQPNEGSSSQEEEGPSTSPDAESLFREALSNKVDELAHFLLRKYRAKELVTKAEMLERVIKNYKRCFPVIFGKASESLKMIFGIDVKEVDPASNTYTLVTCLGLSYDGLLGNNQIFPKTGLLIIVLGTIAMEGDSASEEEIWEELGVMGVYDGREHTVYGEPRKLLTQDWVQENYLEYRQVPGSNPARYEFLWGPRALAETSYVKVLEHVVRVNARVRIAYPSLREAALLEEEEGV
Protocol: as §1, §2

MAGE-A11 = target: T7, MAGE-A11 (human, UniProt P43364 1-429); experiment: as above
T7 construct: In lysates of transiently transfected HEK 293 cells; construct not described
T7 sequence: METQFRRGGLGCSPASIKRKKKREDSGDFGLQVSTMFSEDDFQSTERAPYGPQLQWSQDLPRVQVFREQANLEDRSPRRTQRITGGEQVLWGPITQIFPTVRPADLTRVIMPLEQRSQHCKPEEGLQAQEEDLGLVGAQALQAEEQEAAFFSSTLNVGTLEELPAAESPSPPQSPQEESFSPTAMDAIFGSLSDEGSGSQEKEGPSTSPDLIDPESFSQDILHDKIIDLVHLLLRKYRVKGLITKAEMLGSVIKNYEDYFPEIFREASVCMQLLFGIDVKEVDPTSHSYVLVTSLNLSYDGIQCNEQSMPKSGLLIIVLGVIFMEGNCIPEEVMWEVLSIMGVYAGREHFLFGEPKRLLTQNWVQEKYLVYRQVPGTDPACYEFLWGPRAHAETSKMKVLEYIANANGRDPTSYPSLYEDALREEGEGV
Protocol: as §1, §2

[1] = target: T8, peptide MA3#3 conjugated to KLH (human, conjugated to keyhole limpet haemocyanin (KLH)); experiment: ELISA, clone culture supernatant on coated antigen, GAM IgG-HRP, OD 405 nm
T8 construct: MAGE-A3 residues 73-90 with two added residues at the N-terminus for linkage to the carrier; also called MAGE-A3 peptide #3; peptide #3
T8 peptide: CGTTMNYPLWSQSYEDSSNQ
Protocol: (§3) Wells of a Nunc MAXISORP™ 96-well were coated with antigen. The antigen was diluted in Tris-buffered saline (TBS) at 0.1 μg/50 μl for purified recombinant MAGE proteins, or at 0.5 μg/50 μl for peptides conjugated to KLH, and distributed at 50 μl per well and dried overnight at 37° C. The wells were washed several times in TBS and 50 μl of TBS-1% casein was added to each well. Wells were incubated for 1 hour at 37° C. and washed again several times in TBS.
(§4) In total, 75 clones from Example 5 that grew easily after transfer into 24-well plates were tested two days later in ELISA for reactivity with the following antigens: recombinant MAGE-A3, recombinant MAGE-A2; recombinant MAGE-A12; peptide MA3 #1 conjugated to KLH; peptide MA3 #2 conjugated to KLH; and peptide MA3#3 conjugated to KLH.
(§5) For each clone, 50 μl of culture medium supernatant was transferred into a well of a 96-well plate containing 0.1 μg/well of one of the recombinant MAGE proteins or 0.5 μg/well of one of the peptides conjugated to KLH. As positive control, 50 μl of 57B hybridoma supernatant was tested on each of the antigens.

[2] = target: T9, MAGE-A2 recombinant protein (LVL313) (human, UniProt P43356 1-314); experiment: as above
T9 construct: Purified full-length recombinant protein in ELISA and Western blot; the same id is used for MAGE-A2 in lysates of transfected HEK 293 cells; also called recMA2
T9 sequence (P43356 whole entry): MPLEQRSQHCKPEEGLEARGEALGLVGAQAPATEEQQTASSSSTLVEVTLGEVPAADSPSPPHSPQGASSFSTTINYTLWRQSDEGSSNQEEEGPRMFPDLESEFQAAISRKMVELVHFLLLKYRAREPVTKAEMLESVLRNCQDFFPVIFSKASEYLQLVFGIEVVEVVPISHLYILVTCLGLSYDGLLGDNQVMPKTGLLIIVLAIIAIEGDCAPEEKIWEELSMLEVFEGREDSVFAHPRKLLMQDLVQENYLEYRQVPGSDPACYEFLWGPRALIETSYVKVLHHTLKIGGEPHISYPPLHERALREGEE
Protocol: as §3, §4, §5

[3] = target: T10, MAGE-A12 recombinant protein (LVL314) (human, UniProt P43365 1-314); experiment: as above
T10 construct: Purified full-length recombinant protein in ELISA and Western blot; the same id is used for MAGE-A12 in lysates of transfected HEK 293 cells; also called recMA12
T10 sequence (P43365 whole entry): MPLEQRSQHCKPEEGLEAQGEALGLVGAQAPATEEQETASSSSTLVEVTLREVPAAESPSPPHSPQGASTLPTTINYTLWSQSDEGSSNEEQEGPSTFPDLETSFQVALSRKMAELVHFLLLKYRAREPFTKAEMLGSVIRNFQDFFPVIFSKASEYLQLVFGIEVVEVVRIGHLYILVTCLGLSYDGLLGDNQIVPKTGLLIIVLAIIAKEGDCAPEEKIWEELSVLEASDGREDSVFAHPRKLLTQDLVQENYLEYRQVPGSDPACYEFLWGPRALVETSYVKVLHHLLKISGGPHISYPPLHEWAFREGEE
Protocol: as §3, §4, §5

[4] = target: T11, peptide MA3#2 conjugated to KLH (human, also: conjugated to KLH); experiment: as above
T11 construct: MAGE-A3 residues 163-180 with an added N-terminal residue; by an error of synthesis it lacks the Ile of position 177; also called MAGE-A3 peptide #2; peptide #2
T11 peptide: CGIELMEVDPIGHLYFAT
Protocol: as §3, §4, §5

[5] = target: T12, peptide MA3#1 conjugated to KLH (human, also: conjugated to KLH); experiment: as above
T12 construct: MAGE-A3 residues 137-147 with added residue(s) at the N-terminus for linkage to the carrier; also called MAGE-A3 peptide #1; peptide #1
T12 peptide: CGSVVGNWQYFF
Protocol: as §3, §4, §5

[6] = target: T13, full-length recombinant MAGE-A3 protein (human, UniProt P43357 1-314); experiment: ELISA, biotinylated mAb 23D2 on 0.1 µg/well recombinant MAGE-A3, OD 405 nm
T13 construct: Full-length recombinant protein (made in baculovirus or E. coli, GSK); Also used here for endogenous MAGE-A3 in GERL cell lysate and for summary statements on MAGE-A3; also called recMA3; MA3
T13 sequence (P43357 whole entry): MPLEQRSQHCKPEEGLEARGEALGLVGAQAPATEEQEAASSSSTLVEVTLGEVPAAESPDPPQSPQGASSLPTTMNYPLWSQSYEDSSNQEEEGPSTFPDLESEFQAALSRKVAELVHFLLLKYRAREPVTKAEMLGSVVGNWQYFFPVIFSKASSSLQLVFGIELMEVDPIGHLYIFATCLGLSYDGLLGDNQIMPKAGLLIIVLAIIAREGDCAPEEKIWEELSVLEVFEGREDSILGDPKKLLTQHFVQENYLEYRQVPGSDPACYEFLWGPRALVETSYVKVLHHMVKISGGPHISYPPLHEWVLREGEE
Protocol: An ELISA against MAGE-A3 was then performed using dilutions of biotinylated mAb 23D2 ([…], 0.1, 0.15, 0.2, 0.25 and 0.3 μg/50 μl) to determine useful conditions of use of the biotinylated mAb 23D2.

[7] = target: T11, peptide MA3#2 conjugated to KLH; experiment: ELISA, hybridoma supernatant on 0.5 µg/well peptide-KLH

B1: mAb 16G7 (antibody, IgG1, V domains shown)
VH: EVMVVESGGGLVKPGGSLKLSCAASGFTFRTNAMSWVRQTPEKRLEWVATITSGGGSTYYPVSVKGRFTISRDNAKNTLYLQMSSLRSEDTAIYYCVRQDYFDYWGQGTFVIVSS
VL: QAVVTQESALTTSPGETVTLTCRSSTGAVTSTNYANWVQEKPDHLFTGLIGGTNNRAPGVPARFSGSLIGDKAALTITGAQTEDEAIYFCALWYSNHWVFGGGTKLTVL
notes: also called clone 16G7; hybridoma 16G7
binding result (MAGE-A1): no binding (tested: Between 25 and 85 µg of lysates) | binding result (MAGE-A9): no binding (tested: Between 25 and 85 µg of lysates) | binding result (MAGE-A8): no binding (tested: Between 25 and 85 µg of lysates) | binding result (MAGE-A6): binds | binding result (MAGE-A10): no binding (tested: Between 25 and 85 µg of lysates) | binding result (MAGE-A4): no binding (tested: Between 25 and 85 µg of lysates) | binding result (MAGE-A11): no binding (tested: Between 25 and 85 µg of lysates) | binding result [1]: binds | binding result [2]: no binding | binding result [3]: no binding | binding result [4]: no binding | binding result [5]: no binding

B2: mAb 23D2 (antibody, IgG2a, V domains shown)
VH: DVKLVESGGGLVKPGGSLKVSCVASGFTFSSYTMSWVRQTPEKRLEWVATITSGGGSSYYPDSVKGRFTISRDNAKNTLYLQITSLKSEDTAMYYCTSGGGVLLRLPLFAYWGQGTTLTVSS
VL: QAVVTQESALTTSPGETVTLTCRSSTGAVTASNYANWVQEKPDHSFTGLIGGINNRAPGVPARFSGSLIGDKAALTITGAQTEDEAIYFCALWYNNHWVFGGGTKLTVL
modifications: In the FIG. 8 ELISA and the FIG. 9 competition assay the antibody was biotinylated; the sites are not stated and the letters do not carry them.
notes: also called clone 23D2; hybridoma 23D2
binding result (MAGE-A1): no binding (tested: Between 25 and 85 µg of lysates) | binding result (MAGE-A9): no binding (tested: Between 25 and 85 µg of lysates) | binding result (MAGE-A8): no binding (tested: Between 25 and 85 µg of lysates) | binding result (MAGE-A6): binds | binding result (MAGE-A10): no binding (tested: Between 25 and 85 µg of lysates) | binding result (MAGE-A4): no binding (tested: Between 25 and 85 µg of lysates) | binding result (MAGE-A11): no binding (tested: Between 25 and 85 µg of lysates) | EC50 (read off the curve) [6]: ~0.006 µg/50 µl | binding result [1]: binds | binding result [2]: no binding | binding result [3]: no binding | binding result [4]: no binding | binding result [5]: no binding

B3: mAb 1B1 (antibody, IgG1, V domains shown)
VH: DVQLQESGPGLVKPSQSLSLTCTVTGYSITSDYVWNWIRQFPGNKLEWMGYIGHSGRTSYNPSLKSRISITRDTSKNQFFLQLNSVTSEDTATYYCARGGNNGFAYWGQGTLVTVSA
VL: DIVMTQSPSSLTVTAGEKVTMSCKSSQSLLNSGNQKNYLTWYQQKPGQPPKLLIYWTSTRDSGVPDRFTGSGSGTDFTLTISSVQAEDLAVYYCQNDYSYPPTFGGGTKLEIKR
notes: Tested as hybridoma supernatant; also called clone 1B1; hybridoma 1B1
binding result (MAGE-A1): no binding (tested: Between 25 and 85 µg of lysates) | binding result (MAGE-A9): no binding (tested: Between 25 and 85 µg of lysates) | binding result (MAGE-A8): no binding (tested: Between 25 and 85 µg of lysates) | binding result (MAGE-A6): binds | binding result (MAGE-A10): no binding (tested: Between 25 and 85 µg of lysates) | binding result (MAGE-A4): no binding (tested: Between 25 and 85 µg of lysates) | binding result (MAGE-A11): no binding (tested: Between 25 and 85 µg of lysates) | binding result [7]: no binding | binding result [1]: binds | binding result [2]: no binding | binding result [3]: no binding | binding result [5]: no binding

— patent US20130123472A1 (GlaxoSmithKline, published 2013)
